Assay results taken from patent US20220112288A1 (published 2022).

Columns and labels:
[1] = target: T1, Recombinant human CD4 (R&D Systems, Cat. 10327-CD) (human, UniProt P01730 26-390, limits assumed); assay: BLI (Octet Red384), non-clonal supernatant on AMC sensor, 100 nM human CD4
T1 construct: Bought soluble recombinant protein used as analyte at 100 nM; also called huCD4

[2] = target: T1, Recombinant human CD4 (R&D Systems, …); assay: BLI (Octet Red384), non-clonal supernatant on AMC sensor, 100 nM human CD4, 1:1 local fit;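 note: hybridoma antibodies captured from supernatant, single CD4 concentration as analyte, association and dissociation phases fitted together, giving single-point kinetic estimates per supernatant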

Row | Response [1] | Kd [2] [nM] | koff [2] [s⁻¹] | kon [2] [M⁻¹ s⁻¹] | Binder
1 | 0.14 | < 0.001 | < 1e-07 | 77000 | 75110_07J24A (antibody, V domains shown, Non-clonal AlivaMab Mouse Kappa hybridoma supernatant, captured by anti-mouse IgG Fc (human V regions, mouse Fc)) VH: QAQLQESGPGLVKPSETLSLTCTVSGGSISSYYYNWIRQPAGKGLEWIGRIYTSGRTDYNPSLKSRVTMSADTSKNQFSLKLSSVTAADTAVYYCARDEGPTDAFDIWGQGTMVTVSS VL: DIVMTQTPLSLPVTPGEPASISCRSSQSLLDSDDGNTYLDWYLQKPGQSPHLLIYTLSYRASGVPDRFSGSGSGSDFTLKISRVEAEDVGVYYCMQRIEFPFTFGPGTKVDIK
2 | 0.24 | 0.95 | 0.00013 | 140000 | 75110_05E05A (antibody, V domains shown, Non-clonal AlivaMab Mouse Kappa hybridoma supernatant, captured by anti-mouse IgG Fc (human V regions, mouse Fc)) VH: QVQLQESGPGLVKPSETLSLTCTVSGGSIGSYYWSWIRQPAGKGLEWIGRIYTSGSTNYNPSLKSRVTMSFDTSKNQFSLKLNSVTAADTAVYYCATDGGVGDSLDYWGQGTLVTVSS VL: DIVMTQTPLSLPVTPGEPASISCRSSQSLLDSDDGNTYLDWYLQKPGQSPQLLIYTLSYRASGVPDRFSGSGSGTDFTLKISRVEAEDVGVYYCMQHIEFPFTFGPGTKVDIK
3 | 0.33 | 7.4 | 0.0012 | 160000 | 75110_05E13A (antibody, V domains shown, Non-clonal AlivaMab Mouse Kappa hybridoma supernatant, captured by anti-mouse IgG Fc (human V regions, mouse Fc)) VH: EVQLVESGGDLVKPGGSLRLSCAASGFSFSNAWMSWVRQAPGKGLEWVGRVESKTDGGTTDYAAPVKDRFTISRDDSKYTLYLQMNSLKTEDSAVYYCTIGGGFGLELYGFFDYWGQGTLVTVSS VL: DIQMTQSPSTLSASVGDRVTITCRASQSISSWLAWYQQKPGKAPMLLIYKASSLESGVPSRFSGSGSGTEFTLTISSLQPDDFATYYCLQYNSYYTFGQGTKLEIK
4 | 0.18 | 20 | 0.0042 | 210000 | 75110_02E22A (antibody, V domains shown, Non-clonal AlivaMab Mouse Kappa hybridoma supernatant, captured by anti-mouse IgG Fc (human V regions, mouse Fc)) VH: QVQLQESGPGLVKPSETLSLTCTVSGGSISSFYWSWIRQPAGKGLEWIGRIYTSGSTNYNPSLKSRVTMSVDTSKNQFSLKLSSVTAADTAVYYCARELEKRNYYGMDVWGQGTTVTVSS VL: DIQMTQSPSSLSASVGDRVTITCQASHDISNYLNWYQQKPGKAPKLLIFDASTLETGVPSRFSGSGSGTYFTFTIRSLQPEDIATYYCQQYDSLPLTFGGGTKVEIK
5 | 0.2 | 0.88 | 0.00013 | 150000 | 75110_04D20A (antibody, V domains shown, Non-clonal AlivaMab Mouse Kappa hybridoma supernatant, captured by anti-mouse IgG Fc (human V regions, mouse Fc)) VH: QVQLQESGPGLVKPSETLSLTCTVSNGSISDYYWSWIRQPAGKGLEWIGRIYTSGSTNYNPSLKSRITMSVDTSKNQFSLELSSVTAADTAVYYCARELERYYFYGVDVWGQGTTVTVSS VL: not shown
6 | 0.14 | 6.8 | 0.0019 | 280000 | 75110_06K03A (antibody, V domains shown, Non-clonal AlivaMab Mouse Kappa hybridoma supernatant, captured by anti-mouse IgG Fc (human V regions, mouse Fc)) VH: QVQLQESGPGLVKPSETLSLTCTVSGGSISTYYWSWIRQPAGKGLEWIGRINTSGSTTYNPSLKSRVTMSVDTSKNQFSLKLSSVTAADTAVYYCARELERYYYYGMDVWGQGTTVTVSS VL: DIQMTQSPSSLSASVGDRVTITCQASQDISNYLNWYQQKPGKAPKLLIYYASILETGVPSRFSGSGSGTDFTFTISSLQPEDIATYYCQQYDSLPLTFGGGTKVEIK
7 | 0.25 | 16 | 0.0013 | 86000 | 75110_01C18A (antibody, V domains shown, Non-clonal AlivaMab Mouse Kappa hybridoma supernatant, captured by anti-mouse IgG Fc (human V regions, mouse Fc)) VH: EVQLVESGGGLIQPGGSLRLSCAASGFTVSSNYMNWVRQAPGKGLEWVSVIYAGDNTYSADSVKGRFTISRDNSNNTLCLQMNSLRAEDTAVYYCAREGGTTGAFDIWGQGTMVTVSS VL: DIQMTQSPSSVSASVGDRVTITCRASQGINSWLAWYQQKPGKAPKLLIYAASSLQSGVPSRFSGSGSGTDFTLTISSLQPEDFATYYCQQGNSFPYTFGQGTKLEIK
8 | 0.35 | 4.4 | 0.001 | 230000 | 75110_08A13A (antibody, V domains shown, Non-clonal AlivaMab Mouse Kappa hybridoma supernatant, captured by anti-mouse IgG Fc (human V regions, mouse Fc)) VH: EVQLVESGGGLVQPGGSLRLSCAASGFIFSSYWMSWVRQAPGKGLEWVANIKQDGSEKYYMDSVKGRFTISRDNAKNSLYLQMNSLRAEDTAVYYCARDNSYYYYGMDVWGQGTTVTVSS VL: AIQMTQSPSSLSASVGDRVTITCRASQGIRDDLGWYQQKPGKAPKLLIFAASSLQSGVPSSFSGSGSGTDFTLTISSLQPEDFATYYCLHHYNYPYTFGQGTKLEIK
9 | 0.07 | < 0.001 | < 1e-07 | 37000 | 75110_03I08A (antibody, V domains shown, Non-clonal AlivaMab Mouse Kappa hybridoma supernatant, captured by anti-mouse IgG Fc (human V regions, mouse Fc)) VH: QVQLQESGPGLVKPSETLSLTCTVSGGSISSYYWSWIRQPPGKGLEWIGYIYYSGSTNYNPSLKSRVTISVDTSKNQFSLKLSSVTAADTAVYYCAREGEQWFYGLDVWGQGTTVTVSS VL: EIVLTQSPGTLSLSPGERATLSCRASQSVSSTYLAWYQQKPGQAPRLLIYGSSSRATGIPDRFSGSGSGTDFTLTISRLEPEDFAVYYCQQYGNSFPITFGQGTRLEIK
10 | 0.21 | 0.76 | 0.00017 | 220000 | 75110_04G02A (antibody, V domains shown, Non-clonal AlivaMab Mouse Kappa hybridoma supernatant, captured by anti-mouse IgG Fc (human V regions, mouse Fc)) VH: not shown VL: DIVMTQSPDSLAVSLGERATINCKSSQSVLYSSNNKNYLAWYQQKPGQPPKLLFYWASARESGVPDRFSGSGSGTDFTLTISSLQAEDVALYYCQQYFGSFPTFGQGTKLEIK
11 | 0.24 | < 0.001 | < 1e-07 | 78000 | 75110_05G15A (antibody, V domains shown) VH: QVQLQESGPGLVKPSQTLSLTCTVSGGSISSGGYFWSWIRQHPGKGLEWIGCIYYSGSTYYIPSLKSRVTISVDTSKNQFSLKLRSVTAADTAVYYCARDGYDYWYFDLWGRGTLVTVSS VL: not shown
12 | 0.18 | 8.6 | 0.0012 | 140000 | 75110_03I23A (antibody, V domains shown, Non-clonal AlivaMab Mouse Kappa hybridoma supernatant, captured by anti-mouse IgG Fc (human V regions, mouse Fc)) VH: QVQLQESGPGLVKPSETLSLTCTASGGSITSYYWNWIRQPAGKGLEWIGRIYTSGSTNYNPSLKSRVTMSVDTSKNQFSLKLSSVTAADTAVYYCARDPGYSDAFNIWGQGTMVTVSS VL: not shown
13 | 0.1 | < 0.001 | < 1e-07 | 140000 | 75110_07N04A (antibody, V domains shown, Non-clonal AlivaMab Mouse Kappa hybridoma supernatant, captured by anti-mouse IgG Fc (human V regions, mouse Fc)) VH: QVQLQESGPGLVKPSETLSLTCSVSGVSSTSFYWSWIRQPAGKGLDWIGRIYTSGSTNYNPSLKSRVTMSVDTSKNQFSLKLSSVTAADTAVYYCARDPGYSDAFAIWGQGTMVTVSS VL: not shown
14 | 0.15 | 3.2 | 0.00055 | 170000 | 75110_05A11A (antibody, V domains shown, Non-clonal AlivaMab Mouse Kappa hybridoma supernatant, captured by anti-mouse IgG Fc (human V regions, mouse Fc)) VH: EVQLVESGGGLVKPGGSLTLSCAASGFTFSNTWMSWVRQAPGKGLEWVGRIKSKIDGGTTDYAAPVKGRFTISRDDSKNTLYLQMNSLKTEDTAVYYCTTSGTYSSGWGLFDYWGQGTLVTVSS VL: DIQMTQSPSSLSASVGDRVTITCQASQDISNYLNWYQQKPGKAPKLLIYDTSNLEAGVPSRFSGSGSGTHFTLTISSLQPEDIATYYCQQYDNLPFTFGGGTRVEIK
15 | 0.07 | 9.7 | 0.0024 | 250000 | 75110_06C16A (antibody, V domains shown, Non-clonal AlivaMab Mouse Kappa hybridoma supernatant, captured by anti-mouse IgG Fc (human V regions, mouse Fc)) VH: QVQLQESGPGLVTPSETLSLSCTVSGGSISDYYWSWIRQPGGKGLEWIGRIYSSGSTNYNPSLKSRVTMSVDTSKNQFSLKLSSVTAADTAVYFCARDREDYYYYGMDVWGQGTTVTVSS VL: DIQMTQSPSSLSASVGDRVTITCQASHDISNYLNWYQQKPGKAPKLLIYAASNLETGVPSRFSGSGSGTDFSFTISSLQPEDIATYYCQQYDHLPLTFGGGTKVEIK
16 | 0.16 | 9 | 0.00097 | 110000 | 75110_04H17A (antibody, V domains shown, Non-clonal AlivaMab Mouse Kappa hybridoma supernatant, captured by anti-mouse IgG Fc (human V regions, mouse Fc)) VH: QVQLQESGPGLVKPSETLSLTCTVSGGSISTYYWSWIRQSAGKGLEWIGRIYTSERPNYNPSLKSRVTMSVDTSKNQFSLKLNSVSAADTAVYYCARELERPYYYGMDVWGQGTTVTVSS VL: DVQMTQSPSSLSASVGGRVTITCQASQDISNYLNWYQQKPGKAPKLLIYYASNLETGVPSRFSGSGSGTDFTFTISSLQPEDFATYYCQQYDNLPLTFGGGTKVEIK
17 | 0.21 | 34 | 0.006 | 170000 | 75110_08D24A (antibody, V domains shown, Non-clonal AlivaMab Mouse Kappa hybridoma supernatant, captured by anti-mouse IgG Fc (human V regions, mouse Fc)) VH: QVQLQESGPGLVKPSETLSLTCTVSGGSISGFYWSWIRQPAGKGLEWIGRIYTSENTNYNPSLKSRVTMSVDTSKNQFSLKLSSVTAADTAVYYCARDREGYYYYGMDVWGQGTTVTVSS VL: DIQMTQSPSSLSASVGDRVTITCQASQDISNYLNWYQQKPGKAPKLLIYAASNLETGVPSRFSGSGSGTDFTFTISSLQPEDIATYYCQQYDSLPITFGQGTRLEIK
18 | 0.12 | 12 | 0.002 | 170000 | 75110_06E14A (antibody, V domains shown, Non-clonal AlivaMab Mouse Kappa hybridoma supernatant, captured by anti-mouse IgG Fc (human V regions, mouse Fc)) VH: QVQLQESGPGLVKPSETLSLTCTVSGGSISNYFWSWIRQPAGKGLEWIGRIYSSGNTNYNPSLKSRVTMSVDTSKNQFSLKLSSVTAADTAVYYCARDREDYYYYGMDVWGQGTTVTVSS VL: DIQMTQSPSSLSASVGDRVTITCQASQDISNYLNWYQQKPGKAPKLLIYGASILETGVPSRFTGSGSGTDFTFTISSLQPEDIATYYCQQYDSLPITFGQGTRLEIK
19 | 0.19 | 3.6 | 0.00053 | 150000 | 75110_08M20A (antibody, V domains shown, Non-clonal AlivaMab Mouse Kappa hybridoma supernatant, captured by anti-mouse IgG Fc (human V regions, mouse Fc)) VH: QVQLQESDPGLVKPSETLSLTCTVSGGSISSYYWSWIRQPAGKGLEWIGRIYASGSTNYNPSLKSRVTMSVDTSKNQFSLKLSSVTAADTAVYYCARDREGYYYYGMDVWGQGTTVTVSS VL: DIQMTQSPSSLSASVGDRVTITCQASQDISKYLNWYQQKPGKAPNLLIYAASNLETGVPSRFSGSGSGTDFTFTISSLQPEDIAAYYCQQYDSLPITFGQGTRLEIK
20 | 0.14 | 17 | 0.0022 | 130000 | 75110_02K11A (antibody, V domains shown, Non-clonal AlivaMab Mouse Kappa hybridoma supernatant, captured by anti-mouse IgG Fc (human V regions, mouse Fc)) VH: QVQLQESGPGLVKPSQTLSLTCTVSGGSISSGFYYWTWIRQHPGKGLEWIGYISYSGNTYYNPSFKSRLTISVDTSKSQFSLKLSSVTAADTAVYYCARDRPSNFDAFDIWGQGTMVTVSS VL: not shown
